From patent publication US20090202508A1, “NEGATIVE REGULATION OF HYPOXIA INDUCIBLE FACTOR 1 BY OS-9” (THE JOHNS HOPKINS UNIVERSITY, priority 2004, published 2009)

Columns and labels:
HIF-1α = HIF-1α protein levels by immunoblot in transfected 293 cells; type: cell-based, human
Protocol: (§1) 293 or Hep3B cells were seeded onto 24-well plates at 8×10^4 cells per well of a 24-well plate. The following day, the cells were transfected with plasmid DNAs using Fugene-6 (Roche) for 293 and Lipofectamine Plus (Invitrogen) for Hep3B cells. After 24 h, the cells were exposed to 20% or 1% O2 for 24 h. Cells were lysed, and the luciferase activities were determined by multi-well luminescence reader (PerkinElmer), using the Dual-Luciferase Reporter Assay System (Promega). For p2.1 reporter assay, cells were co-transfected with 15 ng of control reporter pSV-Renilla, 135 ng of HIF-1 reporter p2.1, and expression vector encoding HA-OS-9, HIF-1α, or empty vector. Unless indicated otherwise, 200 ng of HIF-1α, 400 ng of HA-OS-9, 1 ng of PHD2, or 1 ng of HIF-1α triple mutant P402A/P564A/N803A (HIF-1α TM) expression vector was used for co-transfection. For pGalA reporter assays, Hep3B cells were co-transfected with 12.5 ng of pSV-Renilla, reporter 200 ng of pG5ElbLuc, 100 ng of expression vector encoding the GAL4 DNA-binding domain alone or fused to HIF-1α residues 531-826 (Jiang et al. 1997) and empty vector or vector encoding HA-OS-9. For immunoblot assays, 293 cells were seeded at 3×10^6 cells per 10-cm plate. The following day, the cells were co-transfected with expression vectors using Fugene-6. After 24 h, the cells were exposed to 20% or 1% O2 with or without MG132 (10 μM) for 8 h and lysed in 200 μl of lysis buffer containing 50 mM Tris-Cl (pH 8.0), 150 mM NaCl, 5 mM EDTA, 0.1% SDS, 1% NP-40, 0.5% sodium deoxycholate, Complete protease inhibitor cocktail (Roche), sodium orthovanadate, and sodium vanadate (Sigma).

PHD2 [1] = biological target: T1, PHD2 (Homo sapiens, UniProt Q9GZT9); experiment: Prolyl hydroxylation assay / in vitro VHL binding assay with GST-HIF-1α (531-826); type: biochemical
T1 construct: expressed in transfected cells; host or cells: 293 cells (whole cell lysate used as the enzyme source)
Protocol: [^35S]methionine-labeled VHL protein was synthesized in vitro and GST-HIF-1α (531-826) fusion protein (GstA) was expressed in E. coli. 293 cells were transfected with empty, PHD2, or OS-9 expression vector. After 24 h, cells were washed twice with cold hypotonic extraction buffer containing 20 mM Tris (pH 7.5), 5 mM KCl, 1.5 mM MgCl2, 1 mM dithiothreitol and lysed with hypotonic extraction buffer in a Dounce homogenizer. The cell extract was centrifuged at 10,000×g for 10 min at 4° C., and the supernatant was stored in aliquots at −70° C. GstA (4 μg) was preincubated with whole cell lysate (50 μg) in a total volume of 50 μl with PBS-T at 30° C. for 10 min with or without 1 mM dimethyloxalyl glycine (DMOG). The reaction was terminated by addition of desferrioxamine to 1 mM. One aliquot (0.5 μg of GstA) was used for immunoblot assay using anti-hydroxyproline-564 HIF-1α antibody (Chan et al., 2002). The remainder ([…] of GstA) was used for in vitro VHL binding assay.
(§2) For in vitro VHL binding assay, preincubated GstA and 5 μl of [^35S]methionine-labeled VHL protein were mixed in a total volume of 300 μl of PBS-T with 1 mM desferrioxamine and incubated at 4° C. for 90 min. 20 ul of glutathione-Sepharose-4B beads (Amersham Biosciences) was added and incubated for 30 min with rotation. Beads were washed three times with PBS-T. Proteins were eluted in Laemmli sample buffer, fractionated by SDS-PAGE, and detected by autoradiography. For PHD binding assay, […] of GST-HIF-1α was preincubated with 50 μg of -whole cell lysate in a total volume of 50 μl with PBS-T at 30° C. for 10 min with or without 1 mM DMOG. The reaction was terminated by addition of desferrioxamine to 1 mM, 20 μl of glutathione-Sepharose-4B beads were added and incubated for 30 min. The beads were washed three times with PBS-T. Bound protein was eluted in Laemmli sample buffer, fractionated by SDS-PAGE, and subjected to immunoblot assay using antibodies against PHD2 (Novus Biologicals Inc.) or GST (Amersham).

PHD2 [2] = biological target: T1, PHD2; experiment: PHD binding assay (pull down of PHD2 with GST-HIF-1α (531-826)); details: lysates from cells transfected with OS-9 and PHD2 vectors versus PHD2 vector alone; FIG. 7B
Protocol: as §2

HIF-1 = experiment: HIF-1-dependent p2.1 luciferase reporter assay; type: cell-based, human
Protocol: as §1

PHD3 = biological target: T2, PHD3 (Homo sapiens, UniProt Q9H6Z9); experiment: Co-immunoprecipitation of HA-OS-9 with PHD3 in 293 cells; type: cell-based; details: anti-HA immunoprecipitates, immunoblot; FIG. 5
T2 construct: expressed in transfected cells; host or cells: 293 cells
Protocol: 293 cells (3×10^6 cells per […] plate) were transfected with Lipofectamine Plus and a total of 10 μg of expression vectors. After 24 h, cells were lysed with PBS/0.1% Tween-20. 400 μg of whole cell lysate (brought to a final volume of 200 μl with lysis buffer) were immunoprecipitated using anti-HA affinity matrix (Roche) followed by immunoblot assay using antibody against HIF-1α (Zhong et al. 1999), PHD 1-3 (Novus Biologicals Inc.), or HA (Roche).

[3] = system: HIF-1α transactivation domains (residues 531-826); experiment: GAL4-dependent reporter (pGalA) transactivation assay; type: cell-based, human; details: co-transfection of OS-9 expression vector; FIG. 3B
Protocol: as §1, with “After 24 h, the cells were exposed to 20% or 1% O2 with or without MG132 (10 μM) for 8 h and lysed in 200 μl of lysis buffer containing 50 mM Tris-Cl (pH 8.0), 150 mM NaCl, 5 mM EDTA, 0.1% SDS, 1% NP-40, 0.5% sodium deoxycholate, Complete protease inhibitor cocktail (Roche), sodium orthovanadate, and sodium vanadate (Sigma).” left out

PHD2 [4] = experiment: PHD2 protein levels by immunoblot in transfected 293 cells; type: cell-based, human; details: co-transfection of OS-9 vector; FIG. 7C
Protocol: 293 or Hep3B cells were seeded onto 24-well plates at 8×10^4 cells per well of a 24-well plate. The following day, the cells were transfected with plasmid DNAs using Fugene-6 (Roche) for 293 and Lipofectamine Plus (Invitrogen) for Hep3B cells. After 24 h, the cells were exposed to 20% or 1% O2 for 24 h. Cells were lysed, and the luciferase activities were determined by multi-well luminescence reader (PerkinElmer), using the Dual-Luciferase Reporter Assay System (Promega). For p2.1 reporter assay, cells were co-transfected with 15 ng of control reporter pSV-Renilla, 135 ng of HIF-1 reporter p2.1, and expression vector encoding HA-OS-9, HIF-1α, or empty vector. Unless indicated otherwise, 200 ng of HIF-1α, 400 ng of HA-OS-9, 1 ng of PHD2, or 1 ng of HIF-1α triple mutant P402A/P564A/N803A (HIF-1α TM) expression vector was used for co-transfection. […]
For in vitro VHL binding assay, preincubated GstA and 5 μl of [^35S]methionine-labeled VHL protein were mixed in a total volume of 300 μl of PBS-T with 1 mM desferrioxamine and incubated at 4° C. for 90 min. […] Beads were washed three times with PBS-T. Proteins were eluted in Laemmli sample buffer, fractionated by SDS-PAGE, and detected by autoradiography. […]

[5] = 293 cells, co-transfection of OS-9, FIG. 4B

T1 sequence (Q9GZT9 whole entry): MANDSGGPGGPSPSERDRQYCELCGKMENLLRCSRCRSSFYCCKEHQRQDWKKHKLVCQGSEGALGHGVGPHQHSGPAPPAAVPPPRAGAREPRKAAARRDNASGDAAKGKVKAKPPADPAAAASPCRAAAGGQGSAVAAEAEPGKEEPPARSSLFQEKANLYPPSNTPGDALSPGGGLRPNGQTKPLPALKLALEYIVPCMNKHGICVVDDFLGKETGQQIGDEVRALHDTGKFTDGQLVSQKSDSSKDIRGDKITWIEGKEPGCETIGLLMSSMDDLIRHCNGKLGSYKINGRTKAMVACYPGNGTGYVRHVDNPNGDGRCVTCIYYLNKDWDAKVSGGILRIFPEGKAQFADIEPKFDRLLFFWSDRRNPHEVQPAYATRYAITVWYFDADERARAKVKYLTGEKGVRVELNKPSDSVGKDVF
T2 sequence (Q9H6Z9 whole entry): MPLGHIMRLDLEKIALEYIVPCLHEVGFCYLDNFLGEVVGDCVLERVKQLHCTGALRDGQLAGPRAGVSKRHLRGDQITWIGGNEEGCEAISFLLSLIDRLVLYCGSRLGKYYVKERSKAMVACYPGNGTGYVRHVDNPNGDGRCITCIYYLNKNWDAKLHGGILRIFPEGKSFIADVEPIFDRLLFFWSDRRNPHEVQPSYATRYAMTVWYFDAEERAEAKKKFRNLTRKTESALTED

B1: OS-9: human OS-9 protein (667-residue isoform), HA-tagged, from expression vector or in vitro-translated (protein)
chain: MAAETLLSSLLGLLLLGLLLPASLTGGVGSLNLEELSEMRYGIEILPLPVMGGQSQSSDVVIVSSKYKQRYECRLPAGAIHFQREREEETPAYQGPGIPELLSPMRDAPCLLKTKDWWTYEFCYGRHIQQYHMEDSEIKGEVLYLGYYQSAFDWDDETAKASKQHRLKRYHSQTYGNGSKCDLNGRPREAEVRFLCDEGAGISGDYIDRVDEPLSCSYVLTIRTPRLCPHPLLRPPPSAAPQAILCHPSLQPEEYMAYVQRQADSKQYGDKIIEELQDLGPQVWSETKSGVAPQKMAGASPTKDDSKDSDFWKMLNEPEDQAPGGEEVPAEEQDPSPEAADSASGAPNDFQNNVQVKVIRSPADLIRFIEELKGGTKKGKPNIGQEQPVDDAAEVPQREPEKERGDPERQREMEEEEDEDEDEDEDEDERQLLGEFEKELEGILLPSDRDRLRSEVKAGMERELENIIQETEKELDPDGLKKESERDRAMLALTSTLNKLIKRLEEKQSPELVKKHKKKRVVPKKPPPSPQPTEEDPEHRVRVRVTKLRLGGPNQDLTVLEMKRENPQLKQIEGLVKELLEREGLTAAGKIEIKIVRPWAEGTEEGARWLTDEDTRNLKEIFFNILVPGAEEAQKERQRQKELESNYRRVWGSPGGEGTGDLDEFDF
modifications: left off: small tags and cut ends
notes: human OS-9 protein (667-residue isoform), HA-tagged, from expression vector or in vitro-translated
B1 was tested, and the HIF-1α protein levels (HIF-1α; 293 cells co-transfected with HIF-1α and OS-9 expression vector, FIG. 3C) was “reduced”, the “levels of HIF-1α-TM (P402A/P564A/N803A)” value (HIF-1α; 293 cells co-transfected with OS-9 expression vector, FIG. 4A) was “no effect” and the “levels of FLAG-tagged HIF-1α” value (HIF-1α; 293 cells, increasing amounts of PHD2 expression vector, presence of OS-9, FIG. 6A) was “dramatically reduced”. The “prolyl hydroxylation of GST-HIF-1α (531-826) (hydroxyproline at residue 564)” value (PHD2 [1]; immunoblot with anti-Hyp-564 antibody, FIG. 7A middle panel) was “increase”, the “binding of VHL to hydroxylated GST-HIF-1α (531-826)” value (PHD2 [1]; increasing amounts of in vitro-translated OS-9 added after hydroxylation, desferrioxamine present, FIG. 6C) was “no effect” and the “VHL binding to GST-HIF-1α (531-826)” value (PHD2 [1]; lysates from cells co-transfected with PHD2 and OS-9 versus PHD2 alone, FIG. 7A top panel) was “further increased”. For the same molecule, the “binding of PHD2 to GST-HIF-1α (531-826)” value (PHD2 [2]) was “increased binding”, the “Induction of p2.1 reporter activity by HIF-1α” value (HIF-1; [5]) was “significantly inhibited” and the “reporter gene transcription mediated by HIF-1 heterodimers containing HIF-1α-TM” value (HIF-1; [5]) was “neither OS-9 nor PHD2 inhibited”. The “Reporter gene activity induced by hypoxia and/or HIF-1α expression vector” value (HIF-1; co-transfection of OS-9 expression vector, Hep3B cells, 20% or 1% O2, FIG. 3A) was “dramatically inhibited”, the “interaction of OS-9 with PHD3” value (PHD3) was “interaction” and the “transactivation of GAL4-dependent reporter by pGalA” value [3] was “no significant inhibitory effect”. For the same molecule, the PHD2 protein levels (PHD2 [4]) was “no effect”.
